Sequences and labels used below:
B1: GIP derivative of SEQ ID NO: 11 (peptide)
peptide: Y[Aib]EGTFISDYSIAMDAIAQQDFVNWLLAQKGKKNDWKHNITQC
modifications: not fully specified; printed as YAibEGT FISDYSIAMDAIAQQDFVNWLLAQKGKKNDWKHNITQC

Where no end group is shown, it is not given here. [ ]: non-standard residue; d: D form. Aib = CC(C)(N)C(=O)O

The target of this assay is T1, human GIP receptor (human, UniProt P48546 22-466).
T1 sequence (looked up): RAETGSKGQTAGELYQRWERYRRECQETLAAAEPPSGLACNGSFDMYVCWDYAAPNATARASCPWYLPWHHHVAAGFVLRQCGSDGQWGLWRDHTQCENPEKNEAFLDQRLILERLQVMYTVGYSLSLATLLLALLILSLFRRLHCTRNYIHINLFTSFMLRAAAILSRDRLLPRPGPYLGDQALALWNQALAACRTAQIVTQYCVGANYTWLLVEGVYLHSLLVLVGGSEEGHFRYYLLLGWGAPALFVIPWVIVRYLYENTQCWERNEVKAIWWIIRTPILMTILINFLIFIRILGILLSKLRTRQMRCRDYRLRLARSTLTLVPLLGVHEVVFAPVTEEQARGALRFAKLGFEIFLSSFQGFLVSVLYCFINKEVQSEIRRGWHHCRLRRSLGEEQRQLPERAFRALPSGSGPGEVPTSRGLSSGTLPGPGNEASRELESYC
Kind of assay: cell-based or functional assay.
Take Y[Aib]EGTFISDYSIALEKQAQQDFVNWLLAGGPSSGAPPPSC (not fully specified) [GIP derivative of SEQ ID NO: 17]: the “In vitro activity (%) of GIP derivatives compared to human native GIP in human GIP receptors (EC50 from accumulated cAMP, CHO cells expressing the human GIP receptor)” value (“In vitro activity (%) of GIP derivatives” below) came to 111%. Turning to Y[Aib]EGTFISDYSIYLDAQAAKEFIAWLLAGGPSSGAPPPSC (not fully specified) [GIP derivative of SEQ ID NO: 10], the “In vitro activity (%) of GIP derivatives” value came out at 13.9%. In the case of Y[Aib]EGTFISDYSIAMDAIAQQDFVNWLLAGGPSSGAPPPSC (not fully specified) [GIP derivative of SEQ ID NO: 2] it was 13.9%; in that of Y[Aib]EGTFISDYSIYLDKQAA[Aib]EFVNWLLAQKC (not fully specified) [GIP derivative of SEQ ID NO: 13], 31.1%; in that of Y[Aib]EGTFISDYSI[Aib]LDKQAA[Aib]EFVNWLL[Aib]GGPSSGAPPPSC (not fully specified) [GIP derivative of SEQ ID NO: 21], 123%. The value for Y[Aib]EGTFISDYSIYLDKQAA[Aib]EFVNWLL[Aib]GHPSSGAPPPSC (not fully specified) [GIP derivative of SEQ ID NO: 19] was 66.7%; that for Y[Aib]EGTFISDYSIAMDKIAQQDFVNWLLAQKPSSGAPPPSC (not fully specified) [GIP derivative of SEQ ID NO: 15] was 31.1%; that for Y[Aib]EGTFISDYSIYLDAQAA[Aib]EFVNWLLAQKC (not fully specified) [GIP derivative of SEQ ID NO: 14] was 17.4%. As for Y[Aib]EGTFISDYSIYLDKQAA[Aib]EFVNWLL[Aib]GGPSSGAPPPSC (not fully specified) [GIP derivative of SEQ ID NO: 20], the “In vitro activity (%) of GIP derivatives” value turned out to be 75.3%. The value for Y[Aib]EGTFISDYSIAMDGIAQQDFVNWLLAQKPSSGAPPPSC (not fully specified) [GIP derivative of SEQ ID NO: 16] was 11.3%; that for B1 was 122%; that for Y[Aib]EGTFISDYSIYLDKQAAQEFVNWLLAQKPSSGAPPPSC (not fully specified) [GIP derivative of SEQ ID NO: 18] was 13.6%. For the molecule Y[Aib]EGTFISDYSIAMDAIAQQDFVNWLLAQKPSSGAPPPSC (not fully specified) [GIP derivative of SEQ ID NO: 1], the “In vitro activity (%) of GIP derivatives” value was 49.3%.
